{
  "source": "paper PMC9006895",
  "key": {"[1]": {"target": "flotillin 2-MBP (Laodelphax striatellus)", "assay": "BLI; Octet RED96e; biotinylated flotillin 2-MBP (5 μM) loaded on streptavidin biosensors; NP-GST 0 to 4,000 nM in 1× PBS; 25°C; buffer 20 mM NaH2PO4, 150 mM NaCl, 0.05% Tween 20"}, "[2]": {"target": "flotillin 2-MBP (Laodelphax striatellus)", "assay": "MST; Monolith NT.115; flotillin 2-MBP labeled with NHS-495 held at 10 μM, NP-GST diluted from 17.5 μM to 0.0417 nM; 25°C"}},
  "data": [
    {"substance": "NP-GST (natural protein)", "values": [
      {"measurement": "Kd", "setting": "[1]", "result": 619, "unit": "nM"},
      {"measurement": "koff", "setting": "[1]", "result": 0.00382, "unit": "s⁻¹"},
      {"measurement": "kon", "setting": "[1]", "result": 6170, "unit": "M⁻¹ s⁻¹"},
      {"measurement": "Kd", "setting": "[2]", "result": 791, "unit": "nM"}
    ]}
  ]
}
